T1: co-purified MRS-AIMP3 protein (human, UniProt P56192 1-900; O43324 1-174, limits assumed)
T1 construct: MRS and AIMP3 co-expressed in E. coli BL21DE3 and co-purified
T1 sequence 1: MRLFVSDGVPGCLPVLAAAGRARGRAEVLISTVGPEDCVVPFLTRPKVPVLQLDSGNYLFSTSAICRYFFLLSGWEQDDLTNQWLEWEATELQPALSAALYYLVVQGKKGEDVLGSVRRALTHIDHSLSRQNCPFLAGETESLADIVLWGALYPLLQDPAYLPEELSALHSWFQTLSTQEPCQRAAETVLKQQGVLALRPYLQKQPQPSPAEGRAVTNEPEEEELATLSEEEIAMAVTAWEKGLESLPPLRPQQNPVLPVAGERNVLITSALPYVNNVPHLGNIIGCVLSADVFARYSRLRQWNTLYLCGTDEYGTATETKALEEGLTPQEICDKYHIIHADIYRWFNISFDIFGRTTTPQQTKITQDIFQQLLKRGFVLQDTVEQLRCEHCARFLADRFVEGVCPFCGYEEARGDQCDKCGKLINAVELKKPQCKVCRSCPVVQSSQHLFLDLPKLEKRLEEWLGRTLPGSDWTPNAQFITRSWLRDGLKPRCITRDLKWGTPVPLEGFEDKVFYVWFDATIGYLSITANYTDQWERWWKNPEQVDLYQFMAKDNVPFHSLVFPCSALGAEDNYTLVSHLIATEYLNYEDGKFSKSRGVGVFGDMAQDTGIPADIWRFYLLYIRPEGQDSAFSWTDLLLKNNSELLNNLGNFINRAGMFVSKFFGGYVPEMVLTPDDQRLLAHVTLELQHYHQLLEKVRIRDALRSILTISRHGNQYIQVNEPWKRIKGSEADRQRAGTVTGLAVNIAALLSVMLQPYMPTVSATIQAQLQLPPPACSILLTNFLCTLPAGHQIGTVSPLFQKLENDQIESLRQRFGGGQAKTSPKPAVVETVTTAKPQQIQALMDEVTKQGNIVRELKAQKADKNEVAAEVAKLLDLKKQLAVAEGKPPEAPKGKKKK
T1 sequence 2: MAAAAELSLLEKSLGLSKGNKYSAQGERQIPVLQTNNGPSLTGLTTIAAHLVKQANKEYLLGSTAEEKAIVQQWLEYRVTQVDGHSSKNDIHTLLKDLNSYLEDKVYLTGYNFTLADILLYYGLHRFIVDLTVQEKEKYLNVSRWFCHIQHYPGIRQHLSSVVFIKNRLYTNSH


Experiments:
[1] = target: T1, co-purified MRS-AIMP3 protein; experiment: SPR, MRS+AIMP3 on CM5 chip, antibody flowed; 1E8 antibody; MRS+AIMP3 on the chip
Experimental: (§1) Surface plasmon resonance (SPR) experiments were carried out using 1E8 and 8A12 antibodies and MRS+AIMP3 protein obtained in Example 1.
(§2) CM5 chips were coated with MRS+AIMP3 or AIMP3 proteins and 1E8 or 8A12 antibodies were flowed at various concentrations to measure the degree of binding reaction with the proteins. Samples or buffers were injected for 8 minutes at a flow rate of 30 μl/min and washed for 20 minutes.

[2] = target: T1, co-purified MRS-AIMP3 protein; experiment: SPR, CM5 chip coated with MRS+AIMP3, antibody flowed at 0.20 to 200 nM
Experimental: as §1, §2

[3] = target: T1, co-purified MRS-AIMP3 protein; experiment: SPR, CM5 chip coated with MRS+AIMP3, antibody flowed at 0.39 to 200 nM
Experimental: as §1, §2

[4] = target: T1, co-purified MRS-AIMP3 protein; experiment: SPR, MRS+AIMP3 on CM5 chip, antibody flowed; 8A12 antibody; MRS+AIMP3 on the chip
Experimental: as §1, §2

Kd [1]	koff [2]	kon [2]	koff [3]	kon [3]	Kd [4]	Binder
5.42 nM	0.000526 s⁻¹	97100 M⁻¹ s⁻¹	–	–	–	1E8 antibody (1E8 IgG) (antibody, V domains shown, Mouse monoclonal from hybridoma clone 1E8; also called IE8; anti-MRS antibody (1E8)) VH: DVKLQESGPGLVNPSQSLSLTCTVTGYSITSDYAWNWIRQFPGNKLEWMGYISYSGRTSYKSSLKSRISITRDTSKNQFFLELNSVTTEDTATYYCARDYGNFVGYFDVWGAGTTVTVSS VL: DIVMTQSPSSLAVSVGEKVTMSCKSSQSLLYSSNQKNYLAWYQQKPGQSPKLLIYWASTRESGVPDRFTGSGSGTEFTLTISSVKAEDLAVYYCQQYYSYPTFGGGTKLEIKA
–	–	–	0.000213 s⁻¹	137000 M⁻¹ s⁻¹	1.56 nM	8A12 antibody (8A12 IgG) (antibody, V domains shown, Mouse monoclonal from hybridoma clone 8A12; also called 8Al2; anti-MRS antibody (8A12)) VH: DVKLQESGPGLVKPSQSLSLTCTVTGYSITSEYAWTWIRQFPGNKLEWMGYINYNGNTNLNPSLKSRISIIRDTSKNQFFLQLNSVTTEDTATYYCARSLWPRGWFAYWGQGTLVTVSA VL: DIQMTQSPSSMYASLGERVTITCKASQDINSYLSWFQQKPGKSPKTLMYRANRLVDGVPSRFSGSGSGQDYSLTISSLEYEDMGIYYCLQYDEFPRTFGGGTKLEIKA

From patent US20210130491A1 (ONCOTAG DIAGNOSTICS, published 2021)
